Measurements as given in patent publication US5723761.

What was measured:
C14:0-ACP [1] = target: C14:0-ACP
C16:0-ACP [2] = target: C16:0-ACP
C14:0-ACP [3] = target: C14:0-ACP; remark: listed apart in the source
C16:0-ACP [4] = target: C16:0-ACP; remark: listed apart in the source

| Fatty Acyl Composition of Transgenic Canola Seeds (mol %), 14:0 (C14:0-ACP [1]) [mol %] | Fatty Acyl Composition of Transgenic Canola Seeds (mol %), 16:0 (C16:0-ACP [2]) [mol %] | Fatty Acids (nmol/ml), total fatty acid analysis of liquid cultures of CUPH-1 transformed K27 (fadD) (12:1-ACP) [nmol/mL] | Fatty Acids (nmol/ml), total fatty acid analysis of liquid cultures of CUPH-1 transformed K27 (fadD) (C14:0-ACP [3]) [nmol/mL] | Fatty Acids (nmol/ml), total fatty acid analysis of liquid cultures of CUPH-1 transformed K27 (fadD) (14:1-ACP) [nmol/mL] | Fatty Acids (nmol/ml), total fatty acid analysis of liquid cultures of CUPH-1 transformed K27 (fadD) (C16:0-ACP [4]) [nmol/mL] | Fatty Acids (nmol/ml), total fatty acid analysis of liquid cultures of CUPH-1 transformed K27 (fadD) (C18:1-ACP) [nmol/mL] | Fatty Acids (nmol/ml), total fatty acid analysis of liquid cultures of CUPH-1 transformed K27 (fadD) (16:1-ACP) [nmol/mL] | Fatty Acids (nmol/ml), total fatty acid analysis of liquid cultures of CUPH-1 transformed K27 (fadD) (C12:0-ACP) [nmol/mL] | Fatty Acyl Composition of Transgenic Canola Seeds (mol %), 10:0 (C10:0-ACP) [mol %] | Substance |
| --- | --- | --- | --- | --- | --- | --- | --- | --- | --- | --- |
| 0.98 | 27.6 | 0.3 | 225 | 1.1 | 281 | 92.7 | 124 | 2 |  | Cuphea hookeriana Class II thioesterase CUPH-1 (cDNA clone CMT9) (enzyme) |
|  | 20 |  |  |  |  |  |  |  | 3.94 | elm Class II acyl-ACP thioesterase (ULM-1) (enzyme) |
